Experimental data reported in US20230167198A1 (University of California, published 2023).

Tests used:
[1] = biological target: T1, KIV10-P recombinant apolipoprotein(a) construct (UniProt P08519 1605-2040, limits assumed); assay: dot-blot, pattern duplicated by western blot
T1 construct: domain: KIV10 to the protease domain
Experimental: (§1) Lp(a) and array of recombinant apo(a) constructs were used to test LPA-KIV₉ binding by (A) Dot-blot (25 ng protein/dot) and (B) western blot (WB) under reducing conditions (250 ng protein/well).
(§2) Imunoblot analyses. An array of apo(a) constructs was subjected to gel electrophoresis and immunoblot analysis with LPA-KIV9. Briefly, samples (250 ng/well) were loaded in reducing loading buffer and run on a 4-12% Bis-Tris gel (Life Technologies). Gels were transferred to a PVDF membrane (Life Technologies), and the membranes were blocked with 5% nonfat dry milk in Tris-buffered saline and Tween (TBST) for 1 hour before incubation with primary antibodies (1 μg/ml in 1% BSA-TBST) overnight at 4° C., followed by incubation with secondary antibodies conjugated with horse-radish peroxidase (Cell Signaling Technology, Beverly, Mass.) for 1 hour at room temperature and by detection with KPL-TMB membrane peroxidase substrate (SeraCare, Milford, Mass., USA). A dot-blot was also performed with antigens in PBS (25 ng/dot) loaded directly on the membrane. Blocking and immunoblotting were done as described above and detected by a Super Signal West Dura substrate (Thermo Fisher Scientific, Waltham, Mass.) and an OptiChem HR imaging system (UVP, Upland, Calif.).
(§3) Determination of the binding domain of LPA-KIV₉ on apolipoprotein(a). […]

[2] = biological target: T2, K(IV2)5 recombinant apolipoprotein(a) construct (5 copies of KIV2) (UniProt P08519 131-700, limits assumed); assay: dot-blot, pattern duplicated by western blot
T2 construct: domain: KIV2, 5 copies
T2 sequence (looked up): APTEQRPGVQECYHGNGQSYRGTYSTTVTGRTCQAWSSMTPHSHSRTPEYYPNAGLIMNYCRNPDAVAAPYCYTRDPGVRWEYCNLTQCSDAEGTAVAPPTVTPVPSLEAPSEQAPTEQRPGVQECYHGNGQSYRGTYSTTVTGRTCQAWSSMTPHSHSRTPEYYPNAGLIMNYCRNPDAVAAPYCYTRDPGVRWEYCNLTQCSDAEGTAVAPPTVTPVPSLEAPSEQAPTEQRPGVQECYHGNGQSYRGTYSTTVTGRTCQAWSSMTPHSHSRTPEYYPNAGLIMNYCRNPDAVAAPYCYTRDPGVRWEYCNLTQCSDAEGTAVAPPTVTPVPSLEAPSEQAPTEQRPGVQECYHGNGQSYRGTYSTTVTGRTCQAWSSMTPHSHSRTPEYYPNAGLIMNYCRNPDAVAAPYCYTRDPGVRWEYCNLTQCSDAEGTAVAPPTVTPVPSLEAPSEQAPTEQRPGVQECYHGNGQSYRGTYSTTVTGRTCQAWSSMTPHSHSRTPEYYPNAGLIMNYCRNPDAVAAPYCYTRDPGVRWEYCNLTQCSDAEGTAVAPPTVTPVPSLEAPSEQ
Experimental: as §1, §2, §3

[3] = biological target: T3, human plasminogen (R&D, Minneapolis, Minn.) (human, UniProt P00747 20-810); assay: ELISA of hybridoma subclones on coated antigen
T3 construct: Bought reagent
T3 sequence (P00747 20-810 limits assumed): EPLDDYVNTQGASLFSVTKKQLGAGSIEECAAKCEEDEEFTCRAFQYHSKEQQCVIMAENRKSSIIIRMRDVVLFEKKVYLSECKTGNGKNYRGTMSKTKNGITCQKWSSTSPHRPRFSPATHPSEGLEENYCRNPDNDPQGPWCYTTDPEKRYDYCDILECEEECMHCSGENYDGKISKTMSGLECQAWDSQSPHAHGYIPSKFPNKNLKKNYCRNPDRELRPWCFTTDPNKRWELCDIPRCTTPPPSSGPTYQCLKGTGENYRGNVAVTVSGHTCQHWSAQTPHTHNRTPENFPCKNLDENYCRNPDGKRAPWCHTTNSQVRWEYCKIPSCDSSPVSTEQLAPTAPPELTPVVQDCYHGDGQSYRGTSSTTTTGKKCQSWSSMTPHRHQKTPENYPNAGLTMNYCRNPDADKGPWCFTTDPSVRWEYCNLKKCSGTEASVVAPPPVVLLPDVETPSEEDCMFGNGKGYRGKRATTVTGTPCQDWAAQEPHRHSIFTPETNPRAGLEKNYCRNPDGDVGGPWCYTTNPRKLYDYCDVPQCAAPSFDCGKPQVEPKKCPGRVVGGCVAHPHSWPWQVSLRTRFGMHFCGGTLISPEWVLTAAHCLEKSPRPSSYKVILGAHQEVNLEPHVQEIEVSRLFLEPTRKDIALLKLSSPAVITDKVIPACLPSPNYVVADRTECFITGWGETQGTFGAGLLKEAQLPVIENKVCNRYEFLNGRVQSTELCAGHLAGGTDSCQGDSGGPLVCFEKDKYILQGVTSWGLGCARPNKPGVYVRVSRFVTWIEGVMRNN
Experimental: (§4) (A) Mouse plasma titers of Lp(a)-specific antibodies: Following the first boost target-specific antibody titers were determined by ELISA against immobilized antigen by screening serial dilutions of the serum. The graph represents the mean of technical triplicates measurements at 1:400 plasma dilution. (B) Hybridoma screening: 576 hybridoma colonies were collected and expanded. Supernatants were screened by ELISA against the target antigen Lp(a) and counter-screened against antigen K(IV₂)₃. […] (C) Limiting dilution: To ensure monoclonality, 10 positive colonies were subjected to 2 cycles of limiting dilutions, using semi-solid gel without hypoxanthine-aminopterin-thymidine medium. Collected subclones were tested by ELISA. Colony #1 found to specifically binds Lp(a), but not to plasminogen and KIV₂. […] Colony 1 was tested 5 times and designated LPA-KIV₉. (D) Purified LPA-KIV₉ binding to Lp(a) (5 ug/ml) was tested by ELISA. […] Mean±SD.
(§5) ELISA with direct antigen plating to assess binding of hybridoma generated antibodies. […] Bound IgG antibodies were detected using an anti-mouse IgG-alkaline phosphatase (ALP) conjugate (Sigma-Aldrich, St. Louis, Mo.), Lumi-Phos 530 substrate (Lumigen, Southfield, Mich.) and a luminescence plate reader (BioTek, Vermont).

[4] = biological target: T4, K(IV2)3 recombinant apolipoprotein(a) construct (3 copies of KIV2) (UniProt P08519 131-472, limits assumed); assay: ELISA of hybridoma subclones on coated antigen
T4 construct: domain: KIV2, 3 copies; also called apolipoprotein(a) KIV2
T4 sequence (looked up): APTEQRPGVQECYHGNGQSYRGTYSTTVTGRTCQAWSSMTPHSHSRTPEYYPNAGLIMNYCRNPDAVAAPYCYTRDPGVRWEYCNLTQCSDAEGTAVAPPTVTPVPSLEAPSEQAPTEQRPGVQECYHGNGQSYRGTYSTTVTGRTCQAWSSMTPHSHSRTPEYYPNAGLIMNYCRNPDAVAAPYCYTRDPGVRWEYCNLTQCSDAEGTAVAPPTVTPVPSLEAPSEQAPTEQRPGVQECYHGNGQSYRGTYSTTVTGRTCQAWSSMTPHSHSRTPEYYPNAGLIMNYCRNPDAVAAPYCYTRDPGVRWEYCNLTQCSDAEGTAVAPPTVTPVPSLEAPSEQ
Experimental: as §4, §5

T1 sequence (P08519 1605-2040 limits assumed): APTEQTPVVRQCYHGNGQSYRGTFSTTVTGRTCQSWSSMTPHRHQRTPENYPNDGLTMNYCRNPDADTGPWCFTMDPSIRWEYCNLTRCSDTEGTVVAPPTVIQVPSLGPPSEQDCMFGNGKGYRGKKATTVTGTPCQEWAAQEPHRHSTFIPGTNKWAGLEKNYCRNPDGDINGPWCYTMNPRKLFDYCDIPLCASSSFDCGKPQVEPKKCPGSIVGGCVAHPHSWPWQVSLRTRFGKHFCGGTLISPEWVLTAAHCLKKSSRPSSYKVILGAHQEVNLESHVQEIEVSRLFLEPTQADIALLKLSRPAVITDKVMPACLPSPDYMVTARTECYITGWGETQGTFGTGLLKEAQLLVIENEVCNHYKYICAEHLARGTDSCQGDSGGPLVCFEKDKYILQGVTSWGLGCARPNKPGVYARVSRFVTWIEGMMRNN

binding result [1]: no binding (tested: 25 ng/dot) | binding result [2]: no binding (tested: 25 ng/dot) | binding result [3]: no binding | binding result [4]: no binding
B1: LPA-KIV9 murine monoclonal antibody (antibody, IgG1, V domains shown)
VH: QVQLQQSGAELVRPGASVKLSCKALGYTFTDYELHWLKQTPVHGLEWIGAVHPGSGGSAYNQNFKDKATLTADKSSSTAYMELSSLTSEDSAVYYCTREGPFYWGQGTTLTVSS
VL: DVVMTQTPLSLPVSLGDQASISCRSSQSLVHSNGNAYLHWYLQKPGQSPKLLIYKVSNRFSGVPDRFSGSGSGTNFTLKISRVEAEDLGIYFCSQSTHVPLTFGAGTKLELK
notes: constant regions are not; also called Colony #1; Colony 1
